Experimental data from patent US20080020978A1 (Amgen, published 2008).
Bridge positions count the residues as written; N and C are the ends. Square brackets hold non-standard residues; d marks the D form. 1Nal = N[C@@H](Cc1cccc2ccccc12)C(=O)O; hArg = N=C(N)NCCCC[C@H](N)C(=O)O; hCit = NC(=O)NCCCC[C@H](N)C(=O)O; Cit = NC(=O)NCCC[C@H](N)C(=O)O; Aib = CC(C)(N)C(=O)O

B1: SEQ ID NO 895 (peptide)
peptide: Ac-WVEHRLKGLLS[Cit]SGGVVRKNFVPTDVGPFAF-NH2
modifications: lactam 3-7
SMILES: CC(=O)N[C@@H](Cc1c[nH]c2ccccc12)C(=O)N[C@H](C(=O)N[C@H]1CCC(=O)NCCCC[C@@H](C(=O)NCC(=O)N[C@@H](CC(C)C)C(=O)N[C@@H](CC(C)C)C(=O)N[C@@H](CO)C(=O)N[C@@H](CCCNC(N)=O)C(=O)N[C@@H](CO)C(=O)NCC(=O)NCC(=O)N[C@H](C(=O)N[C@H](C(=O)N[C@@H](CCCNC(=N)N)C(=O)N[C@@H](CCCCN)C(=O)N[C@@H](CC(N)=O)C(=O)N[C@@H](Cc2ccccc2)C(=O)N[C@H](C(=O)N2CCC[C@H]2C(=O)N[C@H](C(=O)N[C@@H](CC(=O)O)C(=O)N[C@H](C(=O)NCC(=O)N2CCC[C@H]2C(=O)N[C@@H](Cc2ccccc2)C(=O)N[C@@H](C)C(=O)N[C@@H](Cc2ccccc2)C(N)=O)C(C)C)[C@@H](C)O)C(C)C)C(C)C)C(C)C)NC(=O)[C@H](CC(C)C)NC(=O)[C@H](CCCNC(=N)N)NC(=O)[C@H](Cc2c[nH]cn2)NC1=O)C(C)C
B2: SEQ ID NO 890 (peptide)
peptide: Ac-WVEHRLEGLLKRSGGVVRKNFVPTDVGPFAF-NH2
modifications: lactam 7-11
SMILES: CC(=O)N[C@@H](Cc1c[nH]c2ccccc12)C(=O)N[C@H](C(=O)N[C@@H](CCC(=O)O)C(=O)N[C@@H](Cc1c[nH]cn1)C(=O)N[C@@H](CCCNC(=N)N)C(=O)N[C@@H](CC(C)C)C(=O)N[C@H]1CCC(=O)NCCCC[C@@H](C(=O)N[C@@H](CCCNC(=N)N)C(=O)N[C@@H](CO)C(=O)NCC(=O)NCC(=O)N[C@H](C(=O)N[C@H](C(=O)N[C@@H](CCCNC(=N)N)C(=O)N[C@@H](CCCCN)C(=O)N[C@@H](CC(N)=O)C(=O)N[C@@H](Cc2ccccc2)C(=O)N[C@H](C(=O)N2CCC[C@H]2C(=O)N[C@H](C(=O)N[C@@H](CC(=O)O)C(=O)N[C@H](C(=O)NCC(=O)N2CCC[C@H]2C(=O)N[C@@H](Cc2ccccc2)C(=O)N[C@@H](C)C(=O)N[C@@H](Cc2ccccc2)C(N)=O)C(C)C)[C@@H](C)O)C(C)C)C(C)C)C(C)C)NC(=O)[C@H](CC(C)C)NC(=O)[C@H](CC(C)C)NC(=O)CNC1=O)C(C)C
B3: SEQ ID NO 897 (peptide)
peptide: Ac-[1Nal]VEH[hArg]LKGLLS[Cit]SGGVVRKNFVPTDVGPFAF-NH2
modifications: lactam 3-7
SMILES: CC(=O)N[C@@H](Cc1cccc2ccccc12)C(=O)N[C@H](C(=O)N[C@H]1CCC(=O)NCCCC[C@@H](C(=O)NCC(=O)N[C@@H](CC(C)C)C(=O)N[C@@H](CC(C)C)C(=O)N[C@@H](CO)C(=O)N[C@@H](CCCNC(N)=O)C(=O)N[C@@H](CO)C(=O)NCC(=O)NCC(=O)N[C@H](C(=O)N[C@H](C(=O)N[C@@H](CCCNC(=N)N)C(=O)N[C@@H](CCCCN)C(=O)N[C@@H](CC(N)=O)C(=O)N[C@@H](Cc2ccccc2)C(=O)N[C@H](C(=O)N2CCC[C@H]2C(=O)N[C@H](C(=O)N[C@@H](CC(=O)O)C(=O)N[C@H](C(=O)NCC(=O)N2CCC[C@H]2C(=O)N[C@@H](Cc2ccccc2)C(=O)N[C@@H](C)C(=O)N[C@@H](Cc2ccccc2)C(N)=O)C(C)C)[C@@H](C)O)C(C)C)C(C)C)C(C)C)NC(=O)[C@H](CC(C)C)NC(=O)[C@H](CCCCNC(=N)N)NC(=O)[C@H](Cc2c[nH]cn2)NC1=O)C(C)C
B4: SEQ ID NO 889 (peptide)
peptide: Ac-WVTHRLRGELSRKGGVVRKNFVPTDVGPFAF-NH2
modifications: lactam 9-13
SMILES: CC(=O)N[C@@H](Cc1c[nH]c2ccccc12)C(=O)N[C@H](C(=O)N[C@H](C(=O)N[C@@H](Cc1c[nH]cn1)C(=O)N[C@@H](CCCNC(=N)N)C(=O)N[C@@H](CC(C)C)C(=O)N[C@@H](CCCNC(=N)N)C(=O)NCC(=O)N[C@H]1CCC(=O)NCCCC[C@@H](C(=O)NCC(=O)NCC(=O)N[C@H](C(=O)N[C@H](C(=O)N[C@@H](CCCNC(=N)N)C(=O)N[C@@H](CCCCN)C(=O)N[C@@H](CC(N)=O)C(=O)N[C@@H](Cc2ccccc2)C(=O)N[C@H](C(=O)N2CCC[C@H]2C(=O)N[C@H](C(=O)N[C@@H](CC(=O)O)C(=O)N[C@H](C(=O)NCC(=O)N2CCC[C@H]2C(=O)N[C@@H](Cc2ccccc2)C(=O)N[C@@H](C)C(=O)N[C@@H](Cc2ccccc2)C(N)=O)C(C)C)[C@@H](C)O)C(C)C)C(C)C)C(C)C)NC(=O)[C@H](CCCNC(=N)N)NC(=O)[C@H](CO)NC(=O)[C@H](CC(C)C)NC1=O)[C@@H](C)O)C(C)C
B5: PEG-peptide of SEQ ID NO 886 (peptide)
peptide: WVTHXLAGLLSXSGGVVXKNFVPTDVGPFAF
modifications: Ac-WVTH[hCit]LAGLLS[hCit]SGGVV[hArg]KNFVPTDVGPFAF-NH2; PEG-conjugated (Table 2C: in most cases at Lys^25)
B6: PEG-peptide of SEQ ID NO 887 (peptide)
peptide: B5 peptide
modifications: Ac-WVTH[hArg]LAGLLS[hCit]SGGVV[hArg]KNFVPTDVGPFAF-NH2; PEG-conjugated (Table 2C: in most cases at Lys^25)
B7: SEQ ID NO 898 (peptide)
peptide: Ac-[Aib]WVEH[hArg]LKGLLS[Cit]SGGVVRKNFVPTDVGPFAF-NH2
modifications: lactam 4-8
SMILES: CC(=O)NC(C)(C)C(=O)N[C@@H](Cc1c[nH]c2ccccc12)C(=O)N[C@H](C(=O)N[C@H]1CCC(=O)NCCCC[C@@H](C(=O)NCC(=O)N[C@@H](CC(C)C)C(=O)N[C@@H](CC(C)C)C(=O)N[C@@H](CO)C(=O)N[C@@H](CCCNC(N)=O)C(=O)N[C@@H](CO)C(=O)NCC(=O)NCC(=O)N[C@H](C(=O)N[C@H](C(=O)N[C@@H](CCCNC(=N)N)C(=O)N[C@@H](CCCCN)C(=O)N[C@@H](CC(N)=O)C(=O)N[C@@H](Cc2ccccc2)C(=O)N[C@H](C(=O)N2CCC[C@H]2C(=O)N[C@H](C(=O)N[C@@H](CC(=O)O)C(=O)N[C@H](C(=O)NCC(=O)N2CCC[C@H]2C(=O)N[C@@H](Cc2ccccc2)C(=O)N[C@@H](C)C(=O)N[C@@H](Cc2ccccc2)C(N)=O)C(C)C)[C@@H](C)O)C(C)C)C(C)C)C(C)C)NC(=O)[C@H](CC(C)C)NC(=O)[C@H](CCCCNC(=N)N)NC(=O)[C@H](Cc2c[nH]cn2)NC1=O)C(C)C
B8: SEQ ID NO 896 (peptide)
peptide: Ac-WVEHRLKGLLS[Cit]SGGVVRKNFVPTDVGPFAF-NH2
modifications: lactam 3-7
SMILES: CC(=O)N[C@@H](Cc1c[nH]c2ccccc12)C(=O)N[C@H](C(=O)N[C@H]1CCC(=O)NCCCC[C@@H](C(=O)NCC(=O)N[C@@H](CC(C)C)C(=O)N[C@@H](CC(C)C)C(=O)N[C@@H](CO)C(=O)N[C@@H](CCCNC(N)=O)C(=O)N[C@@H](CO)C(=O)NCC(=O)NCC(=O)N[C@H](C(=O)N[C@H](C(=O)N[C@@H](CCCNC(=N)N)C(=O)N[C@@H](CCCCN)C(=O)N[C@@H](CC(N)=O)C(=O)N[C@@H](Cc2ccccc2)C(=O)N[C@H](C(=O)N2CCC[C@H]2C(=O)N[C@H](C(=O)N[C@@H](CC(=O)O)C(=O)N[C@H](C(=O)NCC(=O)N2CCC[C@H]2C(=O)N[C@@H](Cc2ccccc2)C(=O)N[C@@H](C)C(=O)N[C@@H](Cc2ccccc2)C(N)=O)C(C)C)[C@@H](C)O)C(C)C)C(C)C)C(C)C)NC(=O)[C@H](CC(C)C)NC(=O)[C@H](CCCNC(=N)N)NC(=O)[C@H](Cc2c[nH]cn2)NC1=O)C(C)C
B9: SEQ ID NO 893 (peptide)
peptide: Ac-WVEHRLKGLLS[Cit]SGGVVRKNFVPTDVGPFAF-NH2
modifications: lactam 3-7
SMILES: CC(=O)N[C@@H](Cc1c[nH]c2ccccc12)C(=O)N[C@H](C(=O)N[C@H]1CCC(=O)NCCCC[C@@H](C(=O)NCC(=O)N[C@@H](CC(C)C)C(=O)N[C@@H](CC(C)C)C(=O)N[C@@H](CO)C(=O)N[C@@H](CCCNC(N)=O)C(=O)N[C@@H](CO)C(=O)NCC(=O)NCC(=O)N[C@H](C(=O)N[C@H](C(=O)N[C@@H](CCCNC(=N)N)C(=O)N[C@@H](CCCCN)C(=O)N[C@@H](CC(N)=O)C(=O)N[C@@H](Cc2ccccc2)C(=O)N[C@H](C(=O)N2CCC[C@H]2C(=O)N[C@H](C(=O)N[C@@H](CC(=O)O)C(=O)N[C@H](C(=O)NCC(=O)N2CCC[C@H]2C(=O)N[C@@H](Cc2ccccc2)C(=O)N[C@@H](C)C(=O)N[C@@H](Cc2ccccc2)C(N)=O)C(C)C)[C@@H](C)O)C(C)C)C(C)C)C(C)C)NC(=O)[C@H](CC(C)C)NC(=O)[C@H](CCCNC(=N)N)NC(=O)[C@H](Cc2c[nH]cn2)NC1=O)C(C)C

biological target: CGRP1 receptor (CRLR/RAMP1 complex) of human neuroblastoma SK-N-MC cells (human, UniProt Q16602 23-461; O60894 27-148); experiment: cell-based or functional assay
Sequence (Q16602 23-461, chain 1 of 2): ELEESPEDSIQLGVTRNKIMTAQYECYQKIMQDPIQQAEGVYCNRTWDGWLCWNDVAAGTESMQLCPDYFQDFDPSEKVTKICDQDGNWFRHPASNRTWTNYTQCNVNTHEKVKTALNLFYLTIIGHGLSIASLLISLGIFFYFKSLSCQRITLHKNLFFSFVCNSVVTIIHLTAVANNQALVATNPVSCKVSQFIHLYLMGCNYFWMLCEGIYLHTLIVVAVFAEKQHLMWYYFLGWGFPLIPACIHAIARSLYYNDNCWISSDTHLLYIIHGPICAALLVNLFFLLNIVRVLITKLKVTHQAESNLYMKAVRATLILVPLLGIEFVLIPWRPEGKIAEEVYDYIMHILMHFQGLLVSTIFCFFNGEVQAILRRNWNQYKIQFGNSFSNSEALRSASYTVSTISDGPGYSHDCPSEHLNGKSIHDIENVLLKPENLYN
Sequence (O60894 27-148, chain 2 of 2): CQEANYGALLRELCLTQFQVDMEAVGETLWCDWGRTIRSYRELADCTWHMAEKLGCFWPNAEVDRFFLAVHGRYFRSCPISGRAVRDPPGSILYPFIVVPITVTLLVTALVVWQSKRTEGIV

Row | Binder | Peptide IC50 | PEG-peptide IC50
1 | B1 | 2.8 nM | 
2 | B2 | 1.7 nM | 
3 | B3 | 2.25 nM | 
4 | B4 | 0.94 nM | 
5 | Ac-WVEH[hArg]LKGLLS[Cit]SGGVVRKNFVPTDVGPFAF-NH2 (lactam 3-7) [SEQ ID NO 894] | 1.26 nM | 
6 | B5 |  | 22.7 nM
7 | B6 |  | 6.3 nM
8 | WVTHXLAGLLSXSGGVVXKNFVPTDVGPFAF (Ac-WVTH[hArg]LAGLLS[hCit]SGGVV[hArg]KNFVPTDVGPFAF-NH2) [SEQ ID NO 887] | 3.14 nM | 
9 | Ac-WVEHRLEGLLKRSGGVVRKNFVPTDVGPFAF-NH2 (lactam 7-11; also: PEG-conjugated, in most cases at Lys25) [PEG-peptide of SEQ ID NO 890] |  | 2.86 nM
10 | Ac-WVEHRLKGLLSRSGGVVRKNFVPTDVGPFAF-NH2 (lactam 3-7; also: PEG-conjugated, in most cases at Lys25) [PEG-peptide of SEQ ID NO 891] |  | 3.71 nM
11 | Ac-WVEH[hArg]LKGLLS[Cit]SGGVVRKNFVPTDVGPFAF-NH2 (lactam 3-7; also: PEG-conjugated, in most cases at Lys25) [PEG-peptide of SEQ ID NO 894] |  | 3.54 nM
12 | Ac-[1Nal]VEH[hArg]LKGLLS[Cit]SGGVVRKNFVPTDVGPFAF-NH2 (lactam 3-7; also: PEG-conjugated, in most cases at Lys25) [PEG-peptide of SEQ ID NO 897] |  | 4.1 nM
13 | B7 | 3.18 nM | 
14 | Ac-WVTH[hCit]LAGLLS[hArg]SGGVV[hArg]KNFVPTDVGPFAF-NH2 (also: PEG-conjugated, in most cases at Lys25) [PEG-peptide of SEQ ID NO 888] |  | 2.11 nM
15 | B8 | 1.61 nM | 
16 | Ac-WVEHRLKGLLSRSGGVVRKNFVPTDVGPFAF-NH2 (lactam 3-7) [SEQ ID NO 891] | 1.47 nM | 
17 | B9 | 1.64 nM | 
18 | Ac-WVEHRLKGELSRKGGVVRKNFVPTDVGPFAF-NH2 (lactam 9-13, 3-7) [SEQ ID NO 892] | 1.11 nM | 
